The record followed here is US20240124586A1 (WUXI BIOLOGICS IRELAND, published 2024).

The target in test [1] is cynomolgus CTLA-4 protein (cynomolgus, UniProt G7PL88 36-161, Probably biotinylated for streptavidin-PE detection, as described for the human CTLA-4 reagent in paragraph 775; the letters cannot carry this.). Nature of the test: FACS competition: blocks cynomolgus CTLA-4 protein binding to human CD80 engineered cells. As for the experimental part:
Competitive FACS was used to test whether the antibodies could block human or cynomolgus CTLA-4 binding to hCD80 on cell surface. […] Then the mixtures of antibody and CTLA-4 were added to the cells and incubated for 1 hour at 4° C. The cells were washed two times with 200 μl FACS washing buffer (DPBS containing 1% BSA). Streptavidin PE (BD Pharmingen-554061) 1 to 600 diluted in FACS buffer was added to the cells and incubated at 4° C. for 1 hour. Additional washing steps were performed two times with 200 μL FACS washing buffer followed by centrifugation at 1500 rpm for 4 minutes at 4° C. Finally, the cells were resuspended in 100 μL FACS washing buffer and fluorescence values were measured by flow cytometry and analyzed by FlowJo.

Test [2] has as its target T1, cynomolgus CD19 on CHO-K1 cells (WBP701.CHO-K1.cpro1.FL.C9) (cynomolgus monkey, UniProt A0A2K5W8L9 20-557).
T1 construct: whole, on cells; also called cynomolgus-CD19 expressing cell; WBP701.CHOK1.cPro1.C9
T1 sequence: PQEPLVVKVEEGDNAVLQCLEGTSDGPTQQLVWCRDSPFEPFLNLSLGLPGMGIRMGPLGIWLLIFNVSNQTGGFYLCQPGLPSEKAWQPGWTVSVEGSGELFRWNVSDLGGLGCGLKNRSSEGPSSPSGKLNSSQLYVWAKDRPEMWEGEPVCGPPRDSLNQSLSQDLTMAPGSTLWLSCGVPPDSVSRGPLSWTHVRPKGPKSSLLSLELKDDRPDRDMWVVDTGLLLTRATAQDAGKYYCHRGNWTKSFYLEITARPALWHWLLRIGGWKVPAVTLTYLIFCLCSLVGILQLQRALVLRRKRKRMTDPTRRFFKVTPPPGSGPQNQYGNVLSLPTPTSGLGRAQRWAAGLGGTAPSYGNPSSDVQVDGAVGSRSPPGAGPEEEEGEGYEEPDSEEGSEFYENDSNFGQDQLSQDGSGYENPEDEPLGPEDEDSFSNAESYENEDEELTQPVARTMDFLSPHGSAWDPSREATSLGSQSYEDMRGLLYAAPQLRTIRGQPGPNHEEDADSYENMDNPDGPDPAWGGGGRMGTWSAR
The test can be described thus: flow cytometry on cynomolgus CD19 CHO-K1 cells.
Procedure: Binding of the CD3×CD19 bispecific antibody to Cynomolgus CD19 target protein expressed on CHOK1 cells was determined by flow cytometry analysis. In brief, cynomolgus CD19 over-expressed stable cell line (WBP701.CHOK1.cPro1.C9, WuXi Biologics) were harvested with trypsin and diluted to 1×10⁶ cells/ml in 1% BSA/1×PBS. […] Antibodies serially diluted in 1% BSA/1×PBS were added at 100 ul/well to the pelleted cells and incubated at 4° C. for 1 hour. […] Cells were washed two times with 180 ul/well of 1% BSA/1×PBS by centrifugation at 1500 rpm for 5 minutes at 4° C. […] Cells were then washed two times as described above. After the final wash, cells were resuspended in 80 ul 1% BSA/1×PBS and fluorescence values were measured with a FACS Canto II cytometer (BD Biosciences). The amount of cell surface bound anti-CD19&CD3 bispecific antibody was assessed by measuring the mean fluorescence (MFI). The FACS raw data were analyzed by FlowJo software, wells containing no antibody or secondary antibody only were used to establish background fluorescence. Binding EC50 values were obtained by the four-parameter non-linear regression analysis using GraphPad Prism 5 software.

In test [3] the target is FcγRIIIa (F176) (UniProt P08637 17-208). The test can be described thus: SPR (Biacore), receptor captured on anti-his chip, steady state model. As for the experimental part: (§1) Antibody binding affinity to FcγRs was detected using Biacore T200 (or Biacore 8K). Each receptor was captured on an anti-his antibody immobilized CM5 sensor chip (GE). Antibodies at different concentrations were injected over the sensor chip at a flow rate of 30 uL/min for an association phase of 60 s, followed by 60 s dissociation. The chip was then regenerated by 10 mM glycine (pH 1.5) after each binding cycle.
(§2) The sensorgrams of blank surface and buffer channel were subtracted from the test sensorgrams. The experimental data was fitted by 1:1 model using Langmiur analysis (for FcγRI) or steady state model (for other receptors). A molecular weight of 150 KDa was used to calculate the molar concentration of antibodies.

For test [4], the target named is T2, FcγRIIb (UniProt P31994 46-217, limits assumed).
T2 sequence (looked up): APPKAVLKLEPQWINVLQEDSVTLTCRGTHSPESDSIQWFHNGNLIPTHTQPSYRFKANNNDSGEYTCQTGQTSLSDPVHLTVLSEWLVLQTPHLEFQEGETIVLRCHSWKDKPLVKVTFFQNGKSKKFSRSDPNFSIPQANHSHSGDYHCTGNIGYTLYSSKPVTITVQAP
Described as above. As for the experimental part:
as §1, §2

For test [5], the target named is T3, FcγRIIa (R167) (UniProt P12318 36-218, limits assumed).
T3 sequence (looked up): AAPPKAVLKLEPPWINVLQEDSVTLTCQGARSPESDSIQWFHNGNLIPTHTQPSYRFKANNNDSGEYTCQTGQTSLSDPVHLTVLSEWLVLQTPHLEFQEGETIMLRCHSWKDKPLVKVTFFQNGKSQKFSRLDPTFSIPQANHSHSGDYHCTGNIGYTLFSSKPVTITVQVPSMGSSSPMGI
The test is described as above. As for the experimental part:
as §1, §2

Test [6] concerns the target FcγRIIIa (V176) (UniProt P08637 17-208). The test is described as above. As for the experimental part:
as §1, §2

Test [7] addresses T4, FcγRIIa (H167) (UniProt P12318 36-218, limits assumed).
T4 sequence (looked up): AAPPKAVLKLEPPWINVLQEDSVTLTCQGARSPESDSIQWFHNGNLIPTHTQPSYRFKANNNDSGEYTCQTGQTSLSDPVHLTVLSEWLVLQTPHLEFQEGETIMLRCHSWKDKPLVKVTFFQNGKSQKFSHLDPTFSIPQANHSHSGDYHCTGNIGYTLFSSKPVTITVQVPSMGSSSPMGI
Described as above. As for the experimental part: as §1, §2

Test [8] addresses T5, Cynomolgus CD3 epsilon protein (W331-cynoPro1.ECD.His) (cynomolgus, UniProt Q95LI5 22-117).
T5 construct: extracellular domain; Bought protein; also called Acro #CDE-C5226
T5 sequence (looked up): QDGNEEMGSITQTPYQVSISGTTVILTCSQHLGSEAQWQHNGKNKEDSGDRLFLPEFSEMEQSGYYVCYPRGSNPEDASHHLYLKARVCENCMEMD
Nature of the test: ELISA, cynomolgus CD3 epsilon protein coated. In general terms: In an ELISA, binding on a coated surface is turned into a signal by an enzyme label.
Procedure: The binding of the CD3×CD19 bispecific antibody to Cynomolgus CD3 were tested by protein binding ELISA. […] All wells were washed one time with 300 μL per well of PBS/0.5‰ Tween-20 (v/v). The wells were then blocked for one hour at room temperature with 200 μL per well of PBS/2% BSA (BOVOGEN, #BSAS) and washed three times with 300 μL per well of PBS/0.5‰ Tween-20 (v/v). For the primary antibody binding, CD3×CD19 bispecific antibody serially diluted in PBS/2% BSA were added to the relevant wells and incubated at room temperature for two hours. […] Plates were incubated at room temperature for one hour, followed by six washes as described above. […] The extent of bispecific antibody binding to Cynomolgus CD3 was determined by measuring the OD450 absorbance using the SpectraMax® M5e microplate reader. Wherever appropriate, binding EC50 values were obtained by the four-parameter non-linear regression analysis using GraphPad Prism5 software.

FcγRIIIa (V176), sequence (P08637 17-208 F176V limits assumed): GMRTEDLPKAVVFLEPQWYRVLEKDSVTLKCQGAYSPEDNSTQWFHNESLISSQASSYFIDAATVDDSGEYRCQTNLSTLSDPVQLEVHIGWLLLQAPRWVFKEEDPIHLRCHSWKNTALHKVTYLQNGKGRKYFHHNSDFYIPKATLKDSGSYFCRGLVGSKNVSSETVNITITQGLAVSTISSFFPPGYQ
cynomolgus CTLA-4 protein, sequence (G7PL88 entry or part of it limits assumed): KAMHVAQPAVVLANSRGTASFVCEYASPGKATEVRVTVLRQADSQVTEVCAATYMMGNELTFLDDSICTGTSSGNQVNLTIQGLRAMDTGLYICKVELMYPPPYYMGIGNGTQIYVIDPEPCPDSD
FcγRIIIa (F176), sequence (P08637 17-208 limits assumed): as the sequence (P08637 17-208 F176V limits assumed) above, with V160F counted along it

B1: W3248-U6T5.G25-1.uIgG4.SP, bispecific anti-PD-1 x CTLA-4 (bispecific antibody)
heavy: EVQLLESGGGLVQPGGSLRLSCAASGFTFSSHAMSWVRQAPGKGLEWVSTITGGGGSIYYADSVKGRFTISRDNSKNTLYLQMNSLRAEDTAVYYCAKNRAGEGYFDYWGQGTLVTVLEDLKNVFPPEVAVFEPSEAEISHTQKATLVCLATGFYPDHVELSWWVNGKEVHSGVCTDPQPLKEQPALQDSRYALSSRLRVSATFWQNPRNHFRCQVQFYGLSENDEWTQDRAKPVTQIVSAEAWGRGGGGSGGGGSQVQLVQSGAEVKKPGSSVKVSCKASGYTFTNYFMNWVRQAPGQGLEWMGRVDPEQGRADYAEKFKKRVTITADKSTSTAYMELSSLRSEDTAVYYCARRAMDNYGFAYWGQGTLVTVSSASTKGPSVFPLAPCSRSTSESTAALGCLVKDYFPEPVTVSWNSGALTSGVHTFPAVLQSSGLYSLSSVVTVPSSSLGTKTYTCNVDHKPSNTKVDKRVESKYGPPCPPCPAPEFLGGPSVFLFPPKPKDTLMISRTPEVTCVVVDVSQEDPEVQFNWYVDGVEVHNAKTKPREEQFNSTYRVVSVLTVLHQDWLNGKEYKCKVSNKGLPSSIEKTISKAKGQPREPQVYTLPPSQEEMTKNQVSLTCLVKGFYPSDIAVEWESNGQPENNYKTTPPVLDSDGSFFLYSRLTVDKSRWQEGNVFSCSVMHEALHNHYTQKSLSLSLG
light 1: SYELTQPLSVSVALGQTARITCGGDNIGNKDVHWYQQKPGQAPVLVIYRDSNRPSGIPEGFSGSNSGNTATLTISRAQAGDEADYYCQVWDSIWVFGGGTKLTVLPDIQNPDPAVYQLRDSKSSDKSVCLFTDFDSQTQVSQSKDSDVYITDKCVLDMRSMDFKSNSAVAWSQKSDFACANAFQNSIIPEDTFFPSPESS
light 2: EIVLTQSPDFQSVTPKEKVTITCSANSALSYMYWYQQKPDQSPKLWVHGTSNLASGVPSRFSGSGSGTDFTLTINSLEAEDAATYYCHHWSNTQWTFGGGTKVEIKRTVAAPSVFIFPPSDEQLKSGTASVVCLLNNFYPREAKVQWKVDNALQSGNSQESVTEQDSKDSTYSLSSTLTLSKADYEKHKVYACEVTHQGLSSPVTKSFNRGEC
notes: IgG4 (S228P); also called WBP3248-U6T5.G25-1-uIgG4.SP; U6T5.G25.IgG4
For B1, the IC50 in test [1] was found to be 0.00214 µM.

B2: W3438-T3U4.E17-1.uIgG4.SP, bispecific anti-CD3 x CD19 (bispecific antibody)
heavy 1: QVQLVQSGAEVKKPGSSVKVSCKASGFAFTDYYIHWVRQAPGQGLEWMGWISPGNVNTKYNENFKGRVTITADKSTSTAYMELSSLRSEDTAVYYCARDGYSLYYFDYWGQGTLVTVLEDLKNVFPPEVAVFEPSEAEISHTQKATLVCLATGFYPDHVELSWWVNGKEVHSGVCTDPQPLKEQPALQDSRYALSSRLRVSATFWQNPRNHFRCQVQFYGLSENDEWTQDRAKPVTQIVSAEAWGRYGPPCPPCPAPEFLGGPSVFLFPPKPKDTLMISRTPEVTCVVVDVSQEDPEVQFNWYVDGVEVHNAKTKPREEQFNSTYRVVSVLTVLHQDWLNGKEYKCKVSNKGLPSSIEKTISKAKGQPREPQVYTLPPCQEEMTKNQVSLWCLVKGFYPSDIAVEWESNGQPENNYKTTPPVLDSDGSFFLYSRLTVDKSRWQEGNVFSCSVMHEALHNHYTQKSLSLSLGK
light 1: DIVMTQSPDSLAVSLGERATINCKSSQSLLNSRTRKNYLAWYQQKPGQPPKLLIYWASTRQSGVPDRFSGSGSGTDFTLTISSLQAEDVAVYYCTQSHTLRTFGGGTKVEIKPDIQNPDPAVYQLRDSKSSDKSVCLFTDFDSQTQVSQSKDSDVYITDKCVLDMRSMDFKSNSAVAWSQKSDFACANAFQNSIIPEDTFFPSPESS
heavy 2: QMQLVQSGPEVKKPGTSVKVSCKASGYAFTSYNMYWVRQARGQRLEWIGYIDPYNGDTTYNQKFKGRVTITRDMSTSTAYMELSSLRSEDTAVYYCLTTAYAMDYWGQGTLVTVSSASTKGPSVFPLAPCSRSTSESTAALGCLVKDYFPEPVTVSWNSGALTSGVHTFPAVLQSSGLYSLSSVVTVPSSSLGTKTYTCNVDHKPSNTKVDKRVESKYGPPCPPCPAPEFLGGPSVFLFPPKPKDTLMISRTPEVTCVVVDVSQEDPEVQFNWYVDGVEVHNAKTKPREEQFNSTYRVVSVLTVLHQDWLNGKEYKCKVSNKGLPSSIEKTISKAKGQPREPQVCTLPPSQEEMTKNQVSLSCAVKGFYPSDIAVEWESNGQPENNYKTTPPVLDSDGSFFLVSRLTVDKSRWQEGNVFSCSVMHEALHNHYTQKSLSLSLGK
light 2: DIQLTQSPSFLSASVGDRVTITCSASSTVNYMHWYQQKPGKAPKLLIYSTSNLASGVPSRFSGSGSGTEFTLTISSLQPEDFATYYCHQWSSYPYTFGQGTKLEIKRTVAAPSVFIFPPSDEQLKSGTASVVCLLNNFYPREAKVQWKVDNALQSGNSQESVTEQDSKDSTYSLSSTLTLSKADYEKHKVYACEVTHQGLSSPVTKSFNRGEC
notes: also called E17-Design_2-QQQQ (IgG4); E17-IgG4; copies: 1 + 1 + 1 + 1
Consider B2, for which the EC50 in test [2] was determined as 0.026 µM; in test [8] it was 0.04 nM. The Kd in test [3] worked out at 29.3 µM; in test [4], 24.1 µM; in test [5], 15.8 µM; in test [6], 14 µM; in test [7] it was 20.5 µM.

What is called IC50 is the midpoint of a concentration-inhibition curve. By EC50 is commonly meant the concentration giving half of the maximal effect. Higher therefore signals lower potency in that assay. By Kd is commonly meant the constant that tells how readily two partners part at equilibrium. A higher Kd goes with a looser complex.
